Results: patent publication US20210171640A1 (Janssen / Centocor, published 2021)
Where a chain is given by its changes, count along the chain named. Blank lines part the entries; values can stand above or below the binder they belong to.

Tests used:
[1] = target: T1, human VISTA extracellular domain (human, UniProt Q9H7M9 33-194); test: ProteOn SPR
T1 construct: also called SB0361 (human); human VISTA ECD
T1 sequence: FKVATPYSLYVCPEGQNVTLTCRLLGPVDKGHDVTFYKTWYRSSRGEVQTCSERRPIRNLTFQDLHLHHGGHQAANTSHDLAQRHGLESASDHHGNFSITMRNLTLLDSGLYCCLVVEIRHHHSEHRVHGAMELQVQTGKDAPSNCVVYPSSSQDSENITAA
Experimental: (§1) Antibodies were captured on ProteOn chips using anti-IgG Fc coated surfaces. […] The antigens were allowed to bind/associate to the antibody-coated chips for 4 minutes after which time dissociation was monitored for 30 minutes. Chips were regenerated with two treatments of 100 mM phosphoric acid for 18 seconds. All experiments were run at 25° C. and data was fit to 1:1 Langmuir binding model.

[2] = target: T2, cynomolgus VISTA extracellular domain (cynomolgus, UniProt A0A7N9IB00 33-194); test: ProteOn SPR
T2 construct: extracellular domain; also called SB0361 (cyno); cyno VISTA ECD
T2 sequence: T1 sequence with P6L, L24F, L25F, N145S, V148A, D155E
Experimental: as §1

[3] = target: T3, human VISTA expressed on cells (human, UniProt Q9H7M9 33-295); test: cell-based or functional assay
T3 sequence: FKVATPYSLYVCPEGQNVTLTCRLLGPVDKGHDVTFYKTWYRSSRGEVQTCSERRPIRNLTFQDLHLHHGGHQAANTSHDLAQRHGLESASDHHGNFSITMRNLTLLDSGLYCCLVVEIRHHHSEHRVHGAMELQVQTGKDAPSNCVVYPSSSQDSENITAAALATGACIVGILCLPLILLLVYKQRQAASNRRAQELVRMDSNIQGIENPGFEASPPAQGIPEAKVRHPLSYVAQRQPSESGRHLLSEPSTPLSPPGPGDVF

[4] = target: T3, human VISTA expressed on cells; test: cell-based or functional assay; remark: listed apart in the source
[5] = target: T3, human VISTA expressed on cells; test: cell-based or functional assay; remark: listed apart in the source

Kd [1]: 0.636 nM | koff [1]: 0.000336 s⁻¹ | kon [1]: 528000 M⁻¹ s⁻¹ | Kd [2]: 0.302 nM | koff [2]: 0.00018 s⁻¹ | kon [2]: 598000 M⁻¹ s⁻¹
B1: VSTB103 (antibody, V domains shown)
VH: EVQLVQSGAEVKKPGESLKISCKGSGYSFTSYWIGWVRQMPGKGLEWMGIIYPGDSDTRYSPSFQGQVTISADKSISTAYLQWSSLKASDTAMYYCARDDALYGGYYLDYWGQGTLVTVSS
VL: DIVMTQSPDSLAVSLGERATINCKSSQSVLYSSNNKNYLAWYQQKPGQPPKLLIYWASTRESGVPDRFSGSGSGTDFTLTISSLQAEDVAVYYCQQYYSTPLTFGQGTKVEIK

IC50, IFN-γ in the MLR [3]: -0.16 log10 of antibody concentration | IC50, IFN-γ in the SEB assay [4]: -0.35 log10 of antibody concentration | EC50 IFNγ production, MLR [5]: 0.69 µg/mL
B4: VSTB116 (antibody, human IgG1, kappa, V domains shown)
VH: QVQLVQSGAEVKKPGSSVKVSCKASGGTFSSYAISWVRQAPGQGLEWMGGIIPIFGTANYAQKFQGRVTITADESTSTAYMELSSLRSEDTAVYYCARSSYGWSYEFDYWGQGTLVTVSS
VL: DIQMTQSPSSLSASVGDRVTITCRASQSINTNLNWYQQKPGKAPKLLIYAASSLQSGVPSRFSGSGSGTDFTLTISSLQPEDFATYYCQQARDTPITFGQGTKVEIKR

The next lines start with the binder.

B2: VSTB95 (antibody, human IgG1, kappa, V domains shown)
VH: EVQLVESGGGLVQPGGSLRLSCAASGFTFRNYGMSWVRQAPGKGLEWVASIISGGSYTYYPDSVKGRFTISRDNAKNSLYLQMNSLRAEDTAVYYCARIYDHDGDYYAMDYWGQGTTVTVSS
VL: DIVMTQSPLSLPVTPGEPASISCRSSQSIVHSNGNTYLEWYLQKPGQSPQLLIYKVSNRFSGVPDRFSGSGSGTDFTLKISRVEAEDVGVYYCFQGSHVPWTFGQGTKLEIKR
IC50, IFN-γ in the MLR [3]: 0.22 log10 of antibody concentration | IC50, IFN-γ in the SEB assay [4]: 0.05 log10 of antibody concentration | EC50 IFNγ production, MLR [5]: 1.67 µg/mL

B3: VSTB53 (antibody, human IgG1, kappa, V domains shown)
VH: QVQLVQSGAEVKKPGASVKVSCKASGYTFTHYTIHWVRQAPGQGLEWMGYIIPSSGYSEYNQKFKDRVTMTRDTSTSTVYMELSSLRSEDTAVYYCARGAYDDYYDYYAMDYWGQGTLVTVSS
VL: B2 VL with S28T, G96A
IC50, IFN-γ in the MLR [3]: 0.27 log10 of antibody concentration | IC50, IFN-γ in the SEB assay [4]: -1.05 log10 of antibody concentration | EC50 IFNγ production, MLR [5]: 1.88 µg/mL

B5: VSTB50 (antibody, human IgG1, kappa, V domains shown)
VH: QVQLVQSGSELKKPGASVKVSCKASGYTFTNYGLNWVRQAPGQGLEWMGWINPYTGEPTYADDFKGRFVFSLDTSVSTAYLQICSLKAEDTAVYYCAREGYGNYIFPYWGQGTLVTVSS
VL: DIVMTQTPLSLSVTPGQPASISCRASESVDTYANSLMHWYLQKPGQPPQLLIYRASNLESGVPDRFSGSGSGTDFTLKISRVEAEDVGVYYCQQTNEDPRTFGQGTKLEIKR
IC50, IFN-γ in the MLR [3]: 0.06 log10 of antibody concentration | IC50, IFN-γ in the SEB assay [4]: 1.69 log10 of antibody concentration | EC50 IFNγ production, MLR [5]: 1.14 µg/mL

B6: VSTB60 (antibody, human IgG1, kappa, V domains shown)
VH: B5 VH with L34M, N35T, P53T, P58S, E99D, G100Y, N103I, I105V, F106S, P107A
VL: B5 VL with T31N, L36F, P47S, T95S, N96H, R100Y
IC50, IFN-γ in the MLR [3]: 0.4 log10 of antibody concentration | EC50 IFNγ production, MLR [5]: 2.48 µg/mL

B7: VSTB74 (antibody, V domains shown)
VH: QMQLVQSGPEVKKPGTSVKVSCKASGYIFTDYNIDWVRQARGQRLEWIGDINPKYDSTRYNQKFKGRVTITRDMSTSTAYMELSSLRSEDTAVYYCAADGSSAMDYWGQGTTVTVSS
VL: DIVMTQSPDSLAVSLGERATINCKSSQSLLNSGHQKNYLAWYQQKPGQPPKLLIYGASTRESGVPDRFSGSGSGTDFTLTISSLQAEDVAVYYCQNDHRYPLTFGQGTKLEIKR
Kd [1]: 0.562 nM | koff [1]: 0.000223 s⁻¹ | kon [1]: 397000 M⁻¹ s⁻¹ | Kd [2]: 0.347 nM | koff [2]: 0.000144 s⁻¹ | kon [2]: 415000 M⁻¹ s⁻¹
